Results: patent US20180298083A1 (US Dept. of Health and Human Services, published 2018)
Where two headings read alike, the source gives them in different places.

How the values were obtained:
CAAN.A2 [1] = target: CAAN.A2 (HIV-1); experiment: cell-based or functional assay
CAAN.A2 [2] = target: CAAN.A2 (HIV-1); experiment: cell-based or functional assay; remark: listed apart in the source
CAAN.A2 [3] = target: CAAN.A2 (HIV-1); experiment: cell-based or functional assay; remark: listed apart in the source
[4] = target: T1, SSB, Sjogren syndrome antigen B (Homo sapiens (Human), UniProt P05455 1-408); experiment: Luminex AtheNA Multi-Lyte ANA test
T1 construct: also called SS-B/La
T1 sequence: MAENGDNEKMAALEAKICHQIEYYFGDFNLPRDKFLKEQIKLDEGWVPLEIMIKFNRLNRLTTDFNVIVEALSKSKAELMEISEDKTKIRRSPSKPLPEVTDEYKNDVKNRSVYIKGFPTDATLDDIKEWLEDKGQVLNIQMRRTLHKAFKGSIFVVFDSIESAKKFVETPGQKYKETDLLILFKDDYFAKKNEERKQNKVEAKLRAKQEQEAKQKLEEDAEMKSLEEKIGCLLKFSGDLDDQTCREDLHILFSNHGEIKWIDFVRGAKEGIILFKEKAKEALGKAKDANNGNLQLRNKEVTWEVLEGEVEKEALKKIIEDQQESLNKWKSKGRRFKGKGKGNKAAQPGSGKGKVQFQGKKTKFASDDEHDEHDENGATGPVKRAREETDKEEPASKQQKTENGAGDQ

Jo1 antigen = target: T2, Jo1 antigen; experiment: Luminex AtheNA Multi-Lyte ANA test
T2 construct: also called Jol

CentrB, centromere B = experiment: Luminex AtheNA Multi-Lyte ANA test
Sm, Smith antigen = experiment: Luminex AtheNA Multi-Lyte ANA test
[5] = target: T1, SSB, Sjogren syndrome antigen B; experiment: Luminex AtheNA Multi-Lyte ANA test; remark: listed apart in the source
Histone = experiment: Luminex AtheNA Multi-Lyte ANA test
RNP, ribonucleoprotein = experiment: Luminex AtheNA Multi-Lyte ANA test
[6] = target: T3, SSA, Sjogren's syndrome antigen A; experiment: Luminex AtheNA Multi-Lyte ANA test
T3 construct: also called SSA/Ro

monomeric gp120^JRCSF = target: T4, monomeric gp120^JRCSF (HIV-1 strain JRCSF, UniProt P20871 32-503); experiment: gp120 capture ELISA
T4 construct: domain: gp120

Chain of CentrB, centromere B (P07199 2-599): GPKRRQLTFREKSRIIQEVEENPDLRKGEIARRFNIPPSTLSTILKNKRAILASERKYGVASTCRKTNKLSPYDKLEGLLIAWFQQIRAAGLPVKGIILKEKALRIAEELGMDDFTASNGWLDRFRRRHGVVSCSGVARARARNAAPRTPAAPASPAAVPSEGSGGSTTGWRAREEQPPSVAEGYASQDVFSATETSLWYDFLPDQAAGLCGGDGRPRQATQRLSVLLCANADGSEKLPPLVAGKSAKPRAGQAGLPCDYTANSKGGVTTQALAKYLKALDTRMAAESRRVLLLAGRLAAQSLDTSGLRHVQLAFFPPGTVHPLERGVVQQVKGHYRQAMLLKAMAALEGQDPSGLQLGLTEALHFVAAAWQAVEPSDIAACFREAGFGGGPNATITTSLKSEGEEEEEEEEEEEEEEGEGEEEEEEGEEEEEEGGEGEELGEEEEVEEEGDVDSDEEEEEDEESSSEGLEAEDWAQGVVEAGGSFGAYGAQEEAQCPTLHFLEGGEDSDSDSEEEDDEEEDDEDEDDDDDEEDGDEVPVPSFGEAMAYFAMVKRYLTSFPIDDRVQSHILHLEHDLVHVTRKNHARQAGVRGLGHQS

B1: VRC01 (antibody, V domains shown)
VH: QVQLVQSGGQMKKPGESMRISCRASGYEFIDCTLNWIRLAPGKRPEWMGWLKPRGGAVNYARPLQGRVTMTRDVYSDTAFLELRSLTVDDTAVYFCTRGKNCDYNWDFEHWGRGTPVIVSS
VL: EIVLTQSPGTLSLSPGETAIISCRTSQYGSLAWYQQRPGQAPRLVIYSGSTRAAGIPDRFSGSRWGPDYNLTISNLESGDFGVYYCQQYEFFGQGTKVQVDI
neutralisation IC50 (CAAN.A2 [1]): 1.06 µg/mL
neutralisation IC50 (CAAN.A2 [2]): 1.06 µg/mL
neutralisation IC50 (CAAN.A2 [3]): 1.06 µg/mL

B2: N6 antibody (antibody, V domains shown)
VH: RAHLVQSGTAMKKPGASVRVSCQTSGYTFTAHILFWFRQAPGRGLEWVGWIKPQYGAVNFGGGFRDRVTLTRDVYREIAYMDIRGLKPDDTAVYYCARDRSYGDSSWALDAWGQGTTVVVSA
VL: YIHVTQSPSSLSVSIGDRVTINCQTSQGVGSDLHWYQHKPGRAPKLLIHHTSSVEDGVPSRFSGSGFHTSFNLTISDLQADDIATYYCQVLQFFGRGSRLHIK
notes: also called N6 mAb
binding result [4]: no binding (tested: 50 µg/ml)
Luminex reactivity (unit not given) (Jo1 antigen): 56.4
Luminex reactivity (unit not given) (CentrB, centromere B): 22
Luminex reactivity (unit not given) (Sm, Smith antigen): 5.2
Luminex reactivity (unit not given) [5]: 100
Luminex reactivity (unit not given) (Histone): 50.6
Luminex reactivity (unit not given) (RNP, ribonucleoprotein): 16.8
Luminex reactivity (unit not given) [6]: 36.4

B3: VRC-PG04 (antibody, V domains shown)
VH: QVQLVQSGSGVKKPGASVRVSCWTSEDIFERTELIHWVRQAPGQGLEWIGWVKTVTGAVNFGSPDFRQRVSLTRDRDLFTAHMDIRGLTQGDTATYFCARQKFYTGGQGWYFDLWGRGTLIVVSS
VL: EIVLTQSPGTLSLSPGETASLSCTAASYGHMTWYQKKPGQPPKLLIFATSKRASGIPDRFSGSQFGKQYTLTITRMEPEDFARYYCQQLEFFGQGTRLEIR
Binding affinity relative to WT (%) (monomeric gp120^JRCSF): 100%
